Here are results for 2 molecules from patent publication US20240182596A1 (TUBULIS, published 2024).

One assay addresses T1, FcγRIIIa (CD16) (V158) (Homo sapiens, UniProt P08637).
T1 construct: m21 joins both polymorphic variants; also called V158 variant of m21
The assay can be described thus: Lumit FcγRIIIa (V158) Binding Immunoassay (Promega), left panel FcγRIIIa (CD16) (V158), competition with Tracer-LgBiT, n=1.

For assay [1], the target named is T2, recombinant hexameric C1q complement protein (human) (human, UniProt P02745 23-245; P02746 28-253; P02747 29-245).
T2 construct: also called complement factor C1q
Nature of the assay: HTRF Human C1q Binding Kit (Cisbio), HTRF ratio at 70 nM antibody with the diluent-only background subtracted. (In TR-FRET formats the signal depends on donor and acceptor labels being close together.)

For assay [2], the target named is T3, recombinant human FcγRI (FcγR-SmBiT, Lumit assay) (human, UniProt P12314 16-292).
T3 construct: Kit reagent (Promega); also called FcγRI (CD64); not shown: SmBiT label of the kit
Nature of the assay: Lumit FcγRI Binding Immunoassay (Promega), competition with Tracer-LgBiT for FcγRI-SmBiT, n=1.

The target in a further assay is T4, FcγRIIa (CD32) (H131) (Fused to the SmBiT luciferase fragment (Promega Lumit reagent), not carried in the letters).
T4 construct: m20 joins both polymorphic variants; also called H131 variant of m20; not shown: SmBiT tag (and any linker or purification tag) of Promega's FcγR-SmBiT fusion
T4 chain: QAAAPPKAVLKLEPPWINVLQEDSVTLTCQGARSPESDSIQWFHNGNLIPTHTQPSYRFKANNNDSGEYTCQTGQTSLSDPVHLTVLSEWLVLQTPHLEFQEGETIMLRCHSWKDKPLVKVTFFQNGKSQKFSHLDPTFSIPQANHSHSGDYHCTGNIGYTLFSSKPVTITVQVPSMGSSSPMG
Nature of the assay: Lumit FcγRIIa (H131) Binding Immunoassay (Promega), left panel FcγRIIa (CD32) (H131), competition with Tracer-LgBiT, n=1.

Assay [3] has as its target T5, recombinant human FcRn (FcγRn-SmBiT, Lumit assay) (human, UniProt P55899 24-297; P61769 21-119).
T5 construct: Kit reagent (Promega); not shown: SmBiT label of the kit
The assay can be described thus: Lumit FcRn Binding Immunoassay (Promega), competition with Tracer-LgBiT for FcRn-SmBiT, n=1.

Assay [4] deals with T6, HEK293 cyno-NaPi2B-mCherry (Macaca fascicularis, UniProt A0A2K5UHY1).
T6 construct: full-length mCherry fusion stably expressed on HEK293 cells; also called cynomolgus full-length NaPi2b-mCherry on HEK293 cells
T6 sequence (target on cells): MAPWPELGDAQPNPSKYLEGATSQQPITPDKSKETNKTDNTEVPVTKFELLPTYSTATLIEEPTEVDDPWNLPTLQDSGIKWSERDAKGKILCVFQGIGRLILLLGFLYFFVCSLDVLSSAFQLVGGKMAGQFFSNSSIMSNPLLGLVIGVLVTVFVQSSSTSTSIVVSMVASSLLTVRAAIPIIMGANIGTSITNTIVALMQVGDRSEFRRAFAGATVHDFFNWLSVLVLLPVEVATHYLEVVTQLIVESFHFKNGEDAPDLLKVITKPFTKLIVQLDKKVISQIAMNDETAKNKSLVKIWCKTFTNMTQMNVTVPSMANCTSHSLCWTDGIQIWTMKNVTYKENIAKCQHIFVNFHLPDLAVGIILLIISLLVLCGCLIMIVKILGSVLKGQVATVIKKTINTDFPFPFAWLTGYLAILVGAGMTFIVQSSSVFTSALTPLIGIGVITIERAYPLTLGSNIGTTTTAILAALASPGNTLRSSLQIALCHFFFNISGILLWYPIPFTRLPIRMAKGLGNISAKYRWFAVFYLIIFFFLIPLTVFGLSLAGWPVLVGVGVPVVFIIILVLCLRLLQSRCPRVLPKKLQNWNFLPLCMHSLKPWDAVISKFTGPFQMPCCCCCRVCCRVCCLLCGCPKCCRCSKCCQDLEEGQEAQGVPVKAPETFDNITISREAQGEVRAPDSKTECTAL
The assay can be described thus: flow cytometry on HEK293 cells stably expressing cynomolgus full-length NaPi2b-mCherry, Alexa-dye anti-human IgG H+L secondary antibody, MFI ratio, one-site specific binding fit; the Kd table prints no unit, the concentration axis is in nM.

In assay [5] the target is T7, purified recombinant human Napi2b antigen consisting of Napi2b-extracellular-loop2 expressed as … (human, UniProt O95436 234-362, limits assumed).
T7 construct: Expressed in Expi-HEK293 cells; also called immobilized human NaPi2B; not shown: Fc part; 6-His tag
T7 sequence: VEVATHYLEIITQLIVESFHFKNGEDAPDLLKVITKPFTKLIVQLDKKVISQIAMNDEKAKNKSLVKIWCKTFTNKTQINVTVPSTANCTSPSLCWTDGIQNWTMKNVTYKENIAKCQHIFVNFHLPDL
The assay can be described thus: ELISA on the isolated immobilized protein; table column Binding KD (nmol/L), ELISA.

Assay [6] deals with T8, human NaPi2b on NaPi2b-positive cell lines OVCAR-3 and HCC-78 (human, UniProt O95436 1-690).
T8 construct: Endogenous protein
T8 sequence: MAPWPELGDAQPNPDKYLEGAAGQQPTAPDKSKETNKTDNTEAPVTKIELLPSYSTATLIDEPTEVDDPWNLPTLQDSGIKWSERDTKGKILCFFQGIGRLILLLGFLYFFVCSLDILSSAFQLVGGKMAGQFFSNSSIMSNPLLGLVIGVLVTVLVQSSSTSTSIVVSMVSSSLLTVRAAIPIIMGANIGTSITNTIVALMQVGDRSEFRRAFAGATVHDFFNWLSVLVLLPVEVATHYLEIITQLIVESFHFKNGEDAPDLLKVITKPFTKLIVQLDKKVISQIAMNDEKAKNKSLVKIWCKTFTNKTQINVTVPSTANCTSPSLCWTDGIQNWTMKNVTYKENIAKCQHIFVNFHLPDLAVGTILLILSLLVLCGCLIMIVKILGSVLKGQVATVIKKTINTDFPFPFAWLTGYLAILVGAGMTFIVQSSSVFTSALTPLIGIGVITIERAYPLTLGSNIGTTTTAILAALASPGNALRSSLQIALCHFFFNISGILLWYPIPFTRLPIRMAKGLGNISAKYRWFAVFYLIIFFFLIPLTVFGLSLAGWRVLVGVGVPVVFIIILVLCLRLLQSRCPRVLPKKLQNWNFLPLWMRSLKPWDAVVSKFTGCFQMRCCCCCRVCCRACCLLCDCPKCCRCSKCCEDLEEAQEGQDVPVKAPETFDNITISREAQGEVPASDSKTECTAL
The assay can be described thus: flow cytometry on OVCAR-3 cells; table column Binding KD (nmol/L), FACS (OVCAR-3).

Assay [7] addresses T9, HEK293 rat-NaPi2B-mCherry (Rattus norvegicus, UniProt Q9JJ09).
T9 construct: full-length mCherry fusion stably expressed on HEK293 cells; also called rat full-length NaPi2b-mCherry on HEK293 cells
T9 sequence (target on cells, looked up): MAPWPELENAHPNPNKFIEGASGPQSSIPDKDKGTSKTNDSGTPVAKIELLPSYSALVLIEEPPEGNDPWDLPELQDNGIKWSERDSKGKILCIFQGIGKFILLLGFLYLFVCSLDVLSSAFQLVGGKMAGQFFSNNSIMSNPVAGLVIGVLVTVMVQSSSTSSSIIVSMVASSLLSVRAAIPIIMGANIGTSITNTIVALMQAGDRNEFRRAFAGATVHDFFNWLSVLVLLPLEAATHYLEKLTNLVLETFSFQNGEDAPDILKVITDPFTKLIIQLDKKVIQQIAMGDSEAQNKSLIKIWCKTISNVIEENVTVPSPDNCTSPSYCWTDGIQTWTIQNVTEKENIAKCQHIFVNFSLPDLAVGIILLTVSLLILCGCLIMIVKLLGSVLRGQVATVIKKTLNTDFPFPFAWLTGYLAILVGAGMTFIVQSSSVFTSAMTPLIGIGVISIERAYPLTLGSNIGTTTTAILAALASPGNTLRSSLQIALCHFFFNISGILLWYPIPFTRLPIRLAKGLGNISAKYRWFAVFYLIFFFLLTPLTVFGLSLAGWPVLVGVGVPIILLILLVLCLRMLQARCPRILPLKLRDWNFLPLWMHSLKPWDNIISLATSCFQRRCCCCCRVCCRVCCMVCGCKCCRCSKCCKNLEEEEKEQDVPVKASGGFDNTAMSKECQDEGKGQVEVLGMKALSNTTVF
Nature of the assay: flow cytometry on HEK293 cells stably expressing rat full-length NaPi2b-mCherry, Alexa-dye anti-human IgG H+L secondary antibody, MFI ratio, one-site specific binding fit; the Kd table prints no unit, the concentration axis is in nM. Background: Flow cytometry measures light scatter and fluorescence of single cells or particles in a stream.

The target of assay [8] is T10, human Napi2b-mCherry on HEK293 cells (human, UniProt O95436 1-690).
T10 construct: also called Napi2b (SLC34A2); HEK293 cells overexpressing Napi2b
T10 sequence: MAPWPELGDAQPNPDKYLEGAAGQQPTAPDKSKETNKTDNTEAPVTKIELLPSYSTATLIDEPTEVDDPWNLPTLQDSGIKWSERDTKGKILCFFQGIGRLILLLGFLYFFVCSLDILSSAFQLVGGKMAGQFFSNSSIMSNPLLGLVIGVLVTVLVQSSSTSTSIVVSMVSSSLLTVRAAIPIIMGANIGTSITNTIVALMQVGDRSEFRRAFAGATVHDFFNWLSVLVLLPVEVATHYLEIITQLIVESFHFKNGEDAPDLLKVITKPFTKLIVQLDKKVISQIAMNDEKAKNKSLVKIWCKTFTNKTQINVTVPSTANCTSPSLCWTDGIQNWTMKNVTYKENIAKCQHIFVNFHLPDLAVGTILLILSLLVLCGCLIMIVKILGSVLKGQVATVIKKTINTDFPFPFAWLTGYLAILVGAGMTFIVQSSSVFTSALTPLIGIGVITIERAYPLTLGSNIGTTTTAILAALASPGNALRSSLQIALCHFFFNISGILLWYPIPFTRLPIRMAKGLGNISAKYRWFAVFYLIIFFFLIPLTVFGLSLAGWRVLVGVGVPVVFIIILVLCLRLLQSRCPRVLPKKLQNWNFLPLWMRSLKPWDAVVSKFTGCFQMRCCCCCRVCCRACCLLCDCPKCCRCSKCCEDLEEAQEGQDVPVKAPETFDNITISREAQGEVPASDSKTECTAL
Nature of the assay: flow cytometry on HEK293 cells stably expressing human full-length NaPi2b-mCherry, Alexa-dye anti-human IgG H+L secondary antibody, MFI ratio, one-site specific binding fit; the Kd table prints no unit, the concentration axis is in nM; second experiment on human cells, run beside the rat cells of FIG. 3D.

In assay [9] the target is T7, purified recombinant human Napi2b …. Nature of the assay: ELISA on immobilized recombinant human Napi2b extracellular loop 2-Fc-6-His, HRP anti-human kappa detection.
Assay [10] has the same target. The assay can be described thus: ELISA, coated Napi2b-extracellular-loop2-Fc-6-His, apparent KD from one-site fit.
Assay [11] deals with T10, human Napi2b-mCherry on HEK293 cells. Nature of the assay: flow cytometry on HEK293 cells stably expressing human full-length NaPi2b-mCherry, Alexa-dye anti-human IgG H+L secondary antibody, MFI ratio, one-site specific binding fit; the Kd table prints no unit, the concentration axis is in nM.

B1: Fc-wildtype AV25 (AV25 HC-wt) (antibody)
heavy: not shown
light: DIQMTQSPSSLSASVGDRVTITCSASQDIGNFLNWYQQKPGKTVKVLIYYASSLYSGVPSRFSGSGSGTDYTLTISSLQPEDFATYYCQQYSKLPLTFGQGTKLELKRTVAAPSVFIFPPSDEQLKSGTASVVCLLNNFYPREAKVQWKVDNALQSGNSQESVTEQDSKDSTYSLSSTLTLSKADYEKHKVYACEVTHQGLSSPVTKSFNRGEC
notes: IgG1 with wild-type Fc (L234, L235); also called AV25-wt
Take B1: the “IC50 (read off the curve)” value is roughly 2 µg/mL with FcγRIIIa (CD16) (V158), roughly 0.02 µg/mL in assay [2], roughly 1 µg/mL with FcγRIIa (CD32) (H131) and roughly 3 µg/mL in [3]. In addition, the binding result in assay [1] was “binds”.

B2: parental mAb (parental anti-NaPi2b antibody) (antibody, human IgG1, kappa, L234A L235A, V domains shown)
VH: EVQLVQSGAEVVKPGASVKMSCKASGYTFTGYNIHWVKQAPGQGLEWIGAIYPGNGDTSYKQKFRGRATLTADTSTSTVYMELSSLRSEDSAVYYCARGETARATFAYWGQGTLVTVSS
VL: DIQMTQSPSSLSASVGDRVTITCSASQDIGNFLNWYQQKPGKTVKVLIYYTSSLYSGVPSRFSGSGSGTDYTLTISSLQPEDFATYYCQQYSKLPLTFGQGTKLELKR
notes: also called parental antibody
For orientation: EC50 (read off the curve) means the concentration giving half of the maximal effect. Turning to B2, the Kd was determined as 4.48 nM in assay [4]; 0.147 nM in [5]; 10.8 nM in assay [6]; 6.88 nM in [7]; 2.85 nM in assay [8]; 0.0221 µg/mL in assay [10]. Also, the Kd in [11] was determined as 5.43 nM. In addition, the “EC50 (read off the curve)” value in assay [9] was roughly 0.02 µg/mL.
